Among the data in a protein production outcome set (Wang et al. 2014) are protein production values, retold here.

A short description of this series: label from the status in PepcDB records.
On to “MPPLGRPCHLAAMDSTDGPLDLIAERAEAAWSRGDRHRAMTLARLGLGQDDGHPRLLAVLGAFEQAEGRSAAAAGLFRRAMARCGDDPLMLHNLGVALRGAGLIDAAAAAWEGVLRGCPQRFATLFNLARLRDDQGRGEEALALYRRACLADPAASDAAYNLGNLLARRGALAQAAEVLGKAASVTPHDARIQTNLGIVLRRLGDAAGALACQRRAVALDPDLADAQWNLANLLLALDDYDEGFARYEWRKRRAPWRLVDPPLAEWRGEDLAGRRLLVGLEQGAGDMIQAARFLPVLAGRGARVIVEAPDALAGLLATVDGVESVVAPGAWAAARATCHIRAFSLPYRLGLRFADLAATAGPYLRVPPRTPTPPALPPGGQGPCVGLCWSGNPDFTENAVRAAPLAAFAPLTAVEGLTFFSLQKGPAVAELAASGLPVIDLDPWLVDYAATAAAMARLDMVVTTDTSVAHLAGALGRPCLLLLAAHCDWRWGIGRETSPWYPSLRLLRQERLGDWRAPVARAAALLAGLRRGTDTRGPEST”, for which the protein production entry is “failed”.

Turning to “MPPLRQTKTWVDRNGSAHVELSPTVPPQTPKRHMRIQSPMEISWSEAVREGGEHSARRCGDMAVSALAKPNPIIDDDPEGNPDVCMYTWIVECPGATAVLLWINGVFDHERIEESEMTRLEGSDLWILSLRMPSDWRASYTVNAWSGDGVAPWREAGDRMHIRKAAMSGGRPDSRAMGHIMDSSLVEGPDALPDCWVAASTSVKVVEETVAGEHFWFYEAPVKAPLLVLFDGQHWNNSMNLPAQVDAAIAIGLLPPVSLLMIDSVNTERRWDSVGVPGGQVDVLIDALLPHVRETYNVSARGEDTIVTGASFGGLASLWALALSDGEVGHAIAQSPSLWRFNVADALSAAEQWSSIHLQAGKYEGEMLRLSHQLAEDLSGDIREVRVRGVHGGHDWAWWRVHMLTELTRLLKTL”, the protein production result is recorded as “failed”.

Turning to “MPPMHELTIEGLGPCEVEEGTRLVRAIEDCGAAVGHRCGGQSQCTTCRVEFAAGEPPVMTEAEYDKLTDIGRLGEMRLACQIVVDRDMTLTPLMTVEDQGWDDAGPEPALMVEPDAEWFSIETLEQR”, the protein production entry was “failed”.

Regarding “MPPRRRPHAGLTLPRILILNLLKALATISSLTMLSRITGLVREILIARAFGASDMTDAFNVAFRIPNLLRRIFAEGAFSQAFVPILNEYHGKRGHDETMSLVDAVATVMTWVLAAVSLLGVIGAPIVMTVVATGFRGDSETYNAAVFMTRVMFPYIGLISMVALASGILNTWRNFAVPAFTPVLLNLCLIVAALFVGPHMSQPIYAQAWGVLVGGVLQLVIQVPAMRKLGVMPRVSLNLRAAWANPGVRRVITQMLPALLAVSVAQISLIINTNIASRLGAGAVSYITYADRLMEFPTALLGVALGTILLPSLSRASAEDNREEYSGLLDWGLRLTFLLALPCAAGLMLFGTPITSVLFHYGRFDAHAVEMTQQALTTYGVGLLALILIKILTPGFYARQDIRTPVKIAILVLIITQASNYVFVPMLQHAGLPLSISFGATVNALLLFYGLRRRGYYHPAPGWGLFLLRLVAAMLILSGMLLWFARNFDWIALGATPGLRIALMGACLVLAATVYFGTLWLMGLRYSSFRRRAG”, the protein production result is given as “failed”.

Regarding “MPQAKKRTSTKRKGNKKTNKKKQNETPLRYIFSIIVVILIILGAFQLGIIGRMIDSFFNYLFGMSRYLTYILVLIATIFITYSKQIPRTRRSIGAIVLQLALLFIAQLYFHFSHNITSQREPVLSFVYKAYEQTHFPNFGGGLIGFYLLKLFIPLISIVGVIIITILLLASSFILLLNLRHRDVTKSLFDNLKSSSNHASESIKQKREQNKIKKEEKAQLKEAKIERKKQKKSRQNNNVIKDVSDFPEISQSDDIPIYGHNEQEDKRPNTANQRQKRVLDNEQFQQSLPSTKNQSINNNQPSTTAENNQQQSQAEGSISEAGEEANIEYTVPPLSLLKQPTKQKTTSKAEVQRKGQVLESTLKNFGVNAKVTQIKIGPAVTQYEIQPAQGVKVSKIVNLHNDIALALAAKDVRIEAPIPGRSAVGIEVPNDKISLVTLKEVLEDKFPSKYKLEVGIGRDISGDPISIQLNEMPHLLVAGSTGSGKSVCINGIITSILLNTKPHEVKLMLIDPKMVELNVYNGIPHLLIPVVTNPHKASQALEKIVSEMERRYDLFQHSSTRNIEGYNQYIRKQNEELDEKQPELPYIVVIVDELADLMMVAGKEVENAIQRITQMARAAGIHLIVATQRPSVDVITGIIKNNIPSRIAFAVSSQTDSRTIIGAGGAEKLLGKGDMLYVGNGESTTTRIQGAFLSDQEVQDVVNYVVEQQKANYVKEMEPDAPVDKSEMKSEDALYDEAYLFVIEKQKASTSLLQRQFRIGYNRASRLMDDLERNQVIGPQKGSKPRQILVDLENDEV”, the protein production result is recorded as “failed”.

As to “MPQDPTERRVVVTGPPRRARRAFDYYRPRTEIDEQTTLGHTYVRSLMRSQLRAGLAVFAVLVLLVGPLPLVFAAIPDARRLTWAVLGFCLYAPLVLLARWYVRRAERNERDFVRLVEDR”, the protein production result was “failed”.
